From patent publication US20090156489A1 (Genentech, published 2009)

B1: recombinant human cMet-Fc fusion protein (R&D Systems) (Fc fusion)
chain: ECKEALAKSEMNVNMKYQLPNFTAETPIQNVILHEHHIFLGATNYIYVLNEEDLQKVAEYKTGPVLEHPDCFPCQDCSSKANLSGGVWKDNINMALVVDTYYDDQLISCGSVNRGTCQRHVFPHNHTADIQSEVHCIFSPQIEEPSQCPDCVVSALGAKVLSSVKDRFINFFVGNTINSSYFPDHPLHSISVRRLKETKDGFMFLTDQSYIDVLPEFRDSYPIKYVHAFESNNFIYFLTVQRETLDAQTFHTRIIRFCSINSGLHSYMEMPLECILTEKRKKRSTKKEVFNILQAAYVSKPGAQLARQIGASLNDDILFGVFAQSKPDSAEPMDRSAMCAFPIKYVNDFFNKIVNKNNVRCLQHFYGPNHEHCFNRTLLRNSSGCEARRDEYRTEFTTALQRVDLFMGQFSEVLLTSISTFIKGDLTIANLGTSEGRFMQVVVSRSGPSTPHVNFLLDSHPVSPEVIVEHTLNQNGYTLVITGKKITKIPLNGLGCRHFQSCSQCLSAPPFVQCGWCHDKCVRSEECLSGTWTQQICLPAIYKVFPNSAPLEGGTRLTICGWDFGFRRNNKFDLKKTRVLLGNESCTLTLSESTMNTLKCTVGPAMNKHFNMSIIISNGHGTTQYSTFSYVDPVITSISPKYGPMAGGTLLTLTGNYLNSGNSRHISIGGKTCTLKSVSNSILECYTPAQTISTEFAVKLKIDLANRETSIFSYREDPIVYEIHPTKSFISGGSTITGVGKNLNSVSVPRMVINVHEAGRNFTVACQHRSNSEIICCTTPSLQQLNLQLPLKTKAFFMLDGILSKYFDLIYVHNPVFKPFEKPVMISMGNENVLEIKGNDIDPEAVKGEVLKVGNKSCENIHLHSEAVLCTVPNDLLKLNSELNIEWKQAISSTVLGKVIVQPDQNFT
notes: extracellular domain; Bought protein; the construct is not described; not shown: Fc part of the bought fusion protein, not described
B2: human Netrin-G1-his (purified Netrin-G1 protein with a C-terminus His tag) (receptor, UniProt Q9Y2I2-1 29-409, looked up, not shown: small tags and cut ends)
chain: HYDLCKTQIYTEEGKVWDYMACQPESTDMTKYLKVKLDPPDITCGDPPETFCAMGNPYMCNNECDASTPELAHPPELMFDFEGRHPSTFWQSATWKEYPKPLQVNITLSWSKTIELTDNIVITFESGRPDQMILEKSLDYGRTWQPYQYYATDCLDAFHMDPKSVKDLSQHTVLEIICTEEYSTGYTTNSKIIHFEIKDRFAFFAGPRLRNMASLYGQLDTTKKLRDFFTVTDLRIRLLRPAVGEIFVDELHLARYFYAISDIKVRGRCKCNLHATVCVYDNSKLTCECEHNTTGPDCGKCKKNYQGRPWSPGSYLPIPKGTANTCIPSISSIGTNVCDNELLHCQNGGTCHNNVRCLCPAAYTGILCEKLRCEEAGSCGS
notes: Used purified in the pull-down and as a crude preparation (1 ug/ml) for coating in the solid phase assay; also called NetrinG-his
B3: human NGL-1-Fc (extracellular domain of human NGL-1 fused to human IgG1 Fc) (Fc fusion)
chain: QTCPSVCSCSNQFSKVICVRKNLREVPDGISTNTRLLNLHENQIQIIKVNSFKHLRHLEILQLSRNHIRTIEIGAFNGLANLNTLELFDNRLTTIPNGAFVYLSKLKELWLRNNPIESIPSYAFNRIPSLRRLDLGELKRLSYISEGAFEGLSNLRYLNLAMCNLREIPNLTPLIKLDELDLSGNHLSAIRPGSFQGLMHLQKLWMIQSQIQVIERNAFDNLQSLVEINLAHNNLTLLPHDLFTPLHHLERIHLHHNPWNCNCDILWLSWWIKDMAPSNTACCARCNTPPNLKGRYIGELDQNYFTCYAPVIVEPPADLNVTEGMAAELKCRASTSLTSVSWITPNGTVMTHGAYKVRIAVLSDGTLNFTNVTVQDTGMYTCMVSNSVGNTTASATLNVTAATTTPFSYFSTVTVETMEPSQDEARTTDNNVGPTPVVDWETTNVTTSLTPQSTRSTEKTFTIPVTDINSGIPGIDEVMKTTK
notes: also called NGL-1-ECD IgG Fc fusion protein; PRO331 ECD-Fc; not shown: human IgG1 Fc region

What was measured:
[1] = molecular target: recombinant 6xHis-tagged chick Netrin-1 protein (R&D Systems) (chicken, UniProt Q90922 26-606); assay: solution binding assay, protein A bead pull-down, blot probed with anti-chicken Netrin-1
Procedure: (§1) Recombinant human NGL-1-Fc (a-c), human Netrin-G1-Fc (d-f) and human DCC-Fc (g-i) were used to label COS7 cells expressing human NGL-1 (a, d, g), human Netrin-G1 (b, e, h), chicken Netrin-1 (c, f, i). Specific binding of the transfected cells was evident for Netrin-G1-expressing cells labeled with NGL-1-Fc (b), for NGL-1-expressing cells labeled with Netrin-G 1-Fc (d), as well as for Netrin-1-expressing cells labeled with DCC-Fc (i). (j) The recombinant ECD-Fc fusion proteins (5 nM) indicated at the top (lanes 3-7) were incubated with human Netrin-G1-his (first row), chicken Netrin-1-his (second row) or human HGF protein (third row) in a solution binding assay. Complexes were pulled down by protein A-conjugated beads and probed with His-Probe (anti-His), antibodies to chicken netrin-1 and monoclonal antibodies to human HGF, as indicated. Direct and specific binding of NGL-1-Fc and netrin-G1-His (50 kDa) is shown in the first row. The netrin-1-His protein (75-85 kDa) binds strongly to DCC-Fc and Unc5-Fc (lanes 3 and 4, second row), extremely weakly to NGL-1-Fc (lane 5, second row), and not at all to human cMet-Fc (lane 6). HGF binds to cMet-Fc (lane 6, third row). Lane 1, directly loaded netrin-G1-His; lane 2, directly loaded netrin-1-His; lane 7, directly loaded HGF.
(§2) The question remained whether Netrin-G1 and NGL-1 directly interact with each other. […]

[2] = molecular target: B3; assay: solid phase binding assay, Netrin-G1-his coated wells, serial dilution of NGL-1-Fc, saturation curve and Scatchard analysis
Procedure: (§3) The binding affinity of NGL-1 and Netrin-G1 was then evaluated by a solid phase binding assay. Crude NetrinG-his protein (1 μg/ml) was coated in microtiter wells and non-specific binding sites saturated with 0.5% BSA. Purified NGL-1-Fc protein was serially diluted and added to the coated wells for 1 hour. Signals were detected with the biotinylated anti-human IgGFc antibody, horseradish peroxidase-conjugated strepavidin and a chromogenic substrate TMB (Kirkgaard and Perry Lab). The reactions were terminated with phosphoric acid and absorbance at 450 nm was measured. Non-specific binding was determined in parallel by omitting the microtiter well coating or by incubating the wells with the irrelevant cMet-Fc fusion protein, and dissociation constants were determined using saturation curves and Scatchard analysis (FIG. 2a). […] Cell 87, 175-185. (1996)].

[3] = molecular target: B1; assay: solution binding assay, protein A bead pull-down, blot probed with HisProbe
Procedure: as §1, §2

human HGF protein = molecular target: T1, human HGF protein (human, UniProt P14210 32-728, limits assumed); assay: solution binding assay, pull-down with protein A beads, blot probed with anti-HGF (panel j)
T1 construct: also called hepatocyte growth factor
Procedure: as §1, §2

[4] = molecular target: B2; assay: solid phase binding assay: Netrin-G1-his coated in microtiter wells, NGL-1-Fc in solution, OD450; specific binding = total minus cMet-Fc binding
Procedure: as §3

[5] = molecular target: T2, DCC expressed on COS cells (human, UniProt P43146 26-1447); assay: cell surface binding assay on transfected COS7 cells, fluorescence microscopy (data not shown)
T2 construct: whole, on cells
Procedure: (§4) The resultant fusion proteins were expressed and used in binding assays over a panel of ˜400 putative cell surface transmembrane or GPI-anchored cell surface human proteins that were transiently expressed in COS7 cells. Purified ECD-Fc fusion proteins (0.5 μg/ml) or the crude baculovirus lysates were added to transiently transfected COS7 cells for 1-2 hours at room temperature. After 3 rinses with cold phosphate buffered saline (PBS), the bound protein was cross-linked to the cell surface with 4% paraformaldehyde. The bound Fc fusion protein was detected by biotinylated anti-human IgGFc and R-phycoerythrin-conjugated streptavidin (Jackson Immunoresearch). Cell surface staining was visualized by fluorescent microscopy and images were taken with the Penguin 800CL digital camera system (Pixera).
(§5) Although the NGL-1 and Netrin-G1 interaction appeared to be specific within the context of the screen, the classical Netrins and their known receptors, DCC and Unc5, were not included in the screen. Thus whether NGL-1 also interacts with Netrin-1 and its receptors was determined. Using the same cell surface binding assay, NGL-1, Netrin-G1, or Netrin-1 were expressed in COS7 cells (rows in FIG. 1a-i) and their ability to bind the IgG Fe fusion protein of NGL-1, Netrin-G1, or DCC (columns in FIG. 1a-i) was determined. […]

[6] = molecular target: T3, human NGL-1 expressed on COS7 cells (human, UniProt Q9HCJ2 43-640); assay: cell surface binding assay on transfected COS7 cells, fluorescence microscopy
T3 construct: also called PRO331; Netrin-G1 Ligand
T3 sequence: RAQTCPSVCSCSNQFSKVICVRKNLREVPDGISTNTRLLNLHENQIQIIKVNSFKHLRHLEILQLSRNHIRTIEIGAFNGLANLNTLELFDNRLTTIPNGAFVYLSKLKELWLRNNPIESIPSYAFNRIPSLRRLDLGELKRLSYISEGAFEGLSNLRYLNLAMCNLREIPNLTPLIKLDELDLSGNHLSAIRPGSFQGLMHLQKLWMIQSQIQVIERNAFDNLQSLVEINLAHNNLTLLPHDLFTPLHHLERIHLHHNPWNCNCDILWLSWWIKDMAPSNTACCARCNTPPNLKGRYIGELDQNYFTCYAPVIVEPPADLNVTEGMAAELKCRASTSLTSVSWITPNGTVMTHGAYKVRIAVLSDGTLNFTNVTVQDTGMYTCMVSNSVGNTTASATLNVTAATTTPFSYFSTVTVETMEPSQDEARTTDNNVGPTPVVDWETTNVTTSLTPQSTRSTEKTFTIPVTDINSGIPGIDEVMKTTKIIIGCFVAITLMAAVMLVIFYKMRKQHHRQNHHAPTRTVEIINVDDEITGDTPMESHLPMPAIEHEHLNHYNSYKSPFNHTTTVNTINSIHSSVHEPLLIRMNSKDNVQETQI
Procedure: as §4, §5

T2 sequence (P43146 26-1447): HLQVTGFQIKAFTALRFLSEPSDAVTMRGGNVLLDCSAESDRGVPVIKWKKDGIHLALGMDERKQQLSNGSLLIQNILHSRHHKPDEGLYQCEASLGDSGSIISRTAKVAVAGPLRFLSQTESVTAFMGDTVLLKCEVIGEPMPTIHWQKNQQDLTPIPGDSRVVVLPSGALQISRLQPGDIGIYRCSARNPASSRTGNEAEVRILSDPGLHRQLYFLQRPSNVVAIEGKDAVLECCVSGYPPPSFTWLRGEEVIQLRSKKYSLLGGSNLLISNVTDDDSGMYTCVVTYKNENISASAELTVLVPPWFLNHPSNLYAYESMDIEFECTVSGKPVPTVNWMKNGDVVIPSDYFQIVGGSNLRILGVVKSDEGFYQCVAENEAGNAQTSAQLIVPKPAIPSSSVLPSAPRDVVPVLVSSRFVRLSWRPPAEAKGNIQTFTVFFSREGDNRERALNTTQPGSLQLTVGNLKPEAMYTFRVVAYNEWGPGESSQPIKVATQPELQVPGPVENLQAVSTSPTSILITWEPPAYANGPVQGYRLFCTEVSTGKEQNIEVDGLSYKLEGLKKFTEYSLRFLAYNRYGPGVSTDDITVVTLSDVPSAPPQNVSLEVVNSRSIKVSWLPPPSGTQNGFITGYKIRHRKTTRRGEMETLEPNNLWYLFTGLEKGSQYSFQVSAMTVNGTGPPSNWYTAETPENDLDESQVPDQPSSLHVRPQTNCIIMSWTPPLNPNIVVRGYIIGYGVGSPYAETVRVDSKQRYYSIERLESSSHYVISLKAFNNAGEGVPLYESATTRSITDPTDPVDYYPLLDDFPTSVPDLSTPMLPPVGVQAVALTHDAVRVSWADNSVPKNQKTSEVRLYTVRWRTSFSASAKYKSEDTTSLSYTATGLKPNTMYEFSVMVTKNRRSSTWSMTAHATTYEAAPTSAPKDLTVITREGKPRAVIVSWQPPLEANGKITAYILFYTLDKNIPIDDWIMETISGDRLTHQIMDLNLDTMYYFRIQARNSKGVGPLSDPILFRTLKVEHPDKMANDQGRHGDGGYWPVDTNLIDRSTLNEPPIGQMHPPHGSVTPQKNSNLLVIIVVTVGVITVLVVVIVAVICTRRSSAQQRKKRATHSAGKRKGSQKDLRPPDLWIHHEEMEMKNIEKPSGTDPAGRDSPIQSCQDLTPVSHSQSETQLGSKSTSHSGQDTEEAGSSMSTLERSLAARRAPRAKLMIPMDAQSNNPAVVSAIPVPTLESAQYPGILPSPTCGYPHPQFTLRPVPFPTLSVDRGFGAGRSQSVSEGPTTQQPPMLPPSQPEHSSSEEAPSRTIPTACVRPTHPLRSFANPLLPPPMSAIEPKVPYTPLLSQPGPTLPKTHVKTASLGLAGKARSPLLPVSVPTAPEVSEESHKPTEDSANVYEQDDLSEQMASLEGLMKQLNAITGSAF
T1 sequence (P14210 32-728 limits assumed): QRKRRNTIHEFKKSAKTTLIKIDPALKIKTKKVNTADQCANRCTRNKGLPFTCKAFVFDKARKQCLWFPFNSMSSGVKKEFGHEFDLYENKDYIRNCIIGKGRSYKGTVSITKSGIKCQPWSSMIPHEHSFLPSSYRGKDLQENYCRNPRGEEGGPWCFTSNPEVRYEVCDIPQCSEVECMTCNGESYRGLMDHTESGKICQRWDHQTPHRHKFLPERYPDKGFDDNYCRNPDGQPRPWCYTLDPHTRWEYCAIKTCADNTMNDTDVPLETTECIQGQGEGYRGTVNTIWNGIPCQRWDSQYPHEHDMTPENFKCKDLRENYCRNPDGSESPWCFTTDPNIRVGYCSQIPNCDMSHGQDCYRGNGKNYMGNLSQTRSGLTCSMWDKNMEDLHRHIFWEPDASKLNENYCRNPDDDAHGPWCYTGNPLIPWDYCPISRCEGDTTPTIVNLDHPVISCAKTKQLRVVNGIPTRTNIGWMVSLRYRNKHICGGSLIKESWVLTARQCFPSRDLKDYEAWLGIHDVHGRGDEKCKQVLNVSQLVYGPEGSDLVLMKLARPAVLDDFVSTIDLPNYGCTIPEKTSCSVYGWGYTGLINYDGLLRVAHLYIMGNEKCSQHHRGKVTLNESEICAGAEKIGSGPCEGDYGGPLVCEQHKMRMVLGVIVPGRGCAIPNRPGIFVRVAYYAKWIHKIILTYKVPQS

Binder: B1
binding result [1]: no binding

Binder: B2
Kd [2]: 1.6 nM
binding result [3]: no binding

Binder: B3
binding result (human HGF protein): no binding (tested: 5 nM)
EC50 (read off the curve) [4]: ~2 nM
binding result [5]: no binding
binding result [6]: no binding
